The record followed here is patent US20230203178A1 (SICHUAN KELUN BIOTECH BIOPHARMACEUTICAL, published 2023).

The chains are these.
T1: human BCMA (antigen) (human, UniProt Q02223 1-54, limits assumed)
T1 construct: Antigen coupled to the CM5 chip in SPR; also called B-cell maturation antigen; TNFRF17
T1 sequence (looked up): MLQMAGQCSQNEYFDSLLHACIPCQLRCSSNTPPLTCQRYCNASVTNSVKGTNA

T2: CD19 expressed on Nalm6 cells (UniProt P15391 20-556, limits assumed)
T2 sequence (looked up): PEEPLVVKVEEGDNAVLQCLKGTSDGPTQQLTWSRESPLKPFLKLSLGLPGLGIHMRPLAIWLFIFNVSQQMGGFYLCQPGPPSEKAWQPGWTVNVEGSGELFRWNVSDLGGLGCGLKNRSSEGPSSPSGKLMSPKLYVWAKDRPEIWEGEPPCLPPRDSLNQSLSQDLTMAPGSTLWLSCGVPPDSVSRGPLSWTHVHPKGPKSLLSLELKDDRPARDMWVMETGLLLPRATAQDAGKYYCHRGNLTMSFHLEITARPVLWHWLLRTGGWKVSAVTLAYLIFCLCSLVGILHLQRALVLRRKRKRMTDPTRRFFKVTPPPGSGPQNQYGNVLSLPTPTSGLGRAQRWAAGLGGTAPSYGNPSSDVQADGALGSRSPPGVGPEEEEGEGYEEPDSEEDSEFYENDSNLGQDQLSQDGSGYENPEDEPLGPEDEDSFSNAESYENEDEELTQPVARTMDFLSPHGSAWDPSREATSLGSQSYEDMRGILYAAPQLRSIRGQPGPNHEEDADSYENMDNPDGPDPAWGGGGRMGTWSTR

T3: human CD19 (antigen) (human, UniProt P15391 20-291, limits assumed)
T3 sequence (looked up): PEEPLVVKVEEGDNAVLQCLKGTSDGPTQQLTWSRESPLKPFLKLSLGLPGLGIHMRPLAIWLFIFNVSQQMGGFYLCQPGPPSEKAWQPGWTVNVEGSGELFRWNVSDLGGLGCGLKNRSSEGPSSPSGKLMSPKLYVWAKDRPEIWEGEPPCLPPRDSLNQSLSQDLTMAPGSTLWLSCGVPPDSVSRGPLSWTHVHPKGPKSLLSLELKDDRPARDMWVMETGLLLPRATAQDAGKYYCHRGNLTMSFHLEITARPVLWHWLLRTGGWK

T4: BCMA expressed on target cells (CHO-K1-BCMA recombinant cell line; MM.1S; RPMI8226) (human, UniProt Q02223 1-184)
T4 sequence (looked up): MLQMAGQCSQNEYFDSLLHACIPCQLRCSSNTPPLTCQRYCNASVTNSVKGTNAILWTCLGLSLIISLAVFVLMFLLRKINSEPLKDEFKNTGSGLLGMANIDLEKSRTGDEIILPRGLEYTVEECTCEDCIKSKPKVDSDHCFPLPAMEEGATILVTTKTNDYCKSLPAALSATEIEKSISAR

B1: TanCAR 05 (other)
chain: DIVMTQSPLSLPVTPGEPASISCRSSQSLVHSNGNTFLHWYLQKPGQSPQLLIYKVSNRFSGVPDRFSGSGSGTDFTLKISRVEAEDVGVYYCMQSTHVLTFGGGTKLEIKRAGGGGSQVQLVQSGAEVKKPGASVKVSCKASGYTFTDYLMHWVRQAPGQGLEWMGWINTETGEPTYADDFKGRVTMTRDTSTSTVYMELSSLRSEDTAVYYCAPSLYYGYSWFTYWGQGTLVTVSGGGGSGGGGSGGGGSGGGGSQVTLRESGPALVKPTQTLTLTCTFSGVSLPDYGVSWIRQPPGKALEWLAVIWGSETTYYNSALKSRLTISKDTSKNQVVLTMTNMDPVDTATYYCAKHYYYGGSYAMDYWGQGTTVTVSSGGGGSEIVLTQSPATLSLSPGERATLSCRASQDISKYLNWYQQKPGQAPRLLIYHTSRLHSGIPDRFSGSGSGTDFTLTISRLEPEDIAVYYCQQGNTLPYTFGQGTKLEITTTPAPRPPTPAPTIASQPLSLRPEACRPAAGGAVHTRGLDFACDIYIWAPLAGTCGVLLLSLVITLYCKRGRKKLLYIFKQPFMRPVQTTQEEDGCSCRFPEEEEGGCELRVKFSRSADAPAYKQGQNQLYNELNLGRREEYDVLDKRRGRDPEMGGKPRRKNPQEGLYNELQKDKMAEAYSEIGMKGERRRGKGHDGLYQGLSTATKDTYDALHMQALPPR
notes: Tandem bispecific chimeric antigen receptor on human T cells; built here from its parts without the signal peptide; also called TanCAR 05 CAR-T
B2: TanCAR 10 (other)
chain: DIVMTQSPLSLPVTPGEPASISCRSSQSLVHSNGNTFLHWYLQKPGQSPQLLIYKVSNRFSGVPDRFSGSGSGTDFTLKISRVEAEDVGVYYCMQSTHVLTFGGGTKLEIKRAGGGGSGGGGSGGGGSQVQLVQSGAEVKKPGASVKVSCKASGYTFTDYLMHWVRQAPGQGLEWMGWINTETGEPTYADDFKGRVTMTRDTSTSTVYMELSSLRSEDTAVYYCAPSLYYGYSWFTYWGQGTLVTVSGGGGSGGGGSGGGGSGGGGSEVKLQESGPGLVAPSQSLSVTCTVSGVSLPDYGVSWIRQPPRKGLEWLGVIWGSETTYYNSALKSRLTIIKDNSKSQVFLKMNSLQTDDTAIYYCAKHYYYGGSYAMDYWGQGTSVTVSSGSTSGSGKPGSGEGSTKGDIQMTQTTSSLSASLGDRVTISCRASQDISKYLNWYQQKPDGTVKLLIYHTSRLHSGVPSRFSGSGSGTDYSLTISNLEQEDIATYFCQQGNTLPYTFGGGTKLEITESKYGPPCPPCPFWVLVVVGGVLACYSLLVTVAFIIFWVKRGRKKLLYIFKQPFMRPVQTTQEEDGCSCRFPEEEEGGCELRVKFSRSADAPAYKQGQNQLYNELNLGRREEYDVLDKRRGRDPEMGGKPRRKNPQEGLYNELQKDKMAEAYSEIGMKGERRRGKGHDGLYQGLSTATKDTYDALHMQALPPR
notes: Tandem bispecific chimeric antigen receptor on human T cells; built here from its parts without the signal peptide; also called TanCAR 10 CAR-T
B3: TanCAR 08 (other)
chain: DIVMTQSPLSLPVTPGEPASISCRSSQSLVHSNGNTFLHWYLQKPGQSPQLLIYKVSNRFSGVPDRFSGSGSGTDFTLKISRVEAEDVGVYYCMQSTHVLTFGGGTKLEIKRAGGGGSGGGGSGGGGSQVQLVQSGAEVKKPGASVKVSCKASGYTFTDYLMHWVRQAPGQGLEWMGWINTETGEPTYADDFKGRVTMTRDTSTSTVYMELSSLRSEDTAVYYCAPSLYYGYSWFTYWGQGTLVTVSGGGGSGGGGSGGGGSGGGGSQVTLRESGPALVKPTQTLTLTCTFSGVSLPDYGVSWIRQPPGKALEWLAVIWGSETTYYNSALKSRLTISKDTSKNQVVLTMTNMDPVDTATYYCAKHYYYGGSYAMDYWGQGTTVTVSSGSTSGSGKPGSGEGSTKGEIVLTQSPATLSLSPGERATLSCRASQDISKYLNWYQQKPGQAPRLLIYHTSRLHSGIPDRFSGSGSGTDFTLTISRLEPEDIAVYYCQQGNTLPYTFGQGTKLEITTTPAPRPPTPAPTIASQPLSLRPEACRPAAGGAVHTRGLDFACDIYIWAPLAGTCGVLLLSLVITLYCKRGRKKLLYIFKQPFMRPVQTTQEEDGCSCRFPEEEEGGCELRVKFSRSADAPAYQQGQNQLYNELNLGRREEYDVLDKRRGRDPEMGGKPRRKNPQEGLYNELQKDKMAEAYSEIGMKGERRRGKGHDGLYQGLSTATKDTYDALHMQALPPR
notes: Tandem bispecific chimeric antigen receptor on human T cells; built here from its parts without the signal peptide; also called TanCAR 08 CAR-T
B4: TanCAR 06 (other)
chain: QVTLRESGPALVKPTQTLTLTCTFSGVSLPDYGVSWIRQPPGKALEWLAVIWGSETTYYNSALKSRLTISKDTSKNQVVLTMTNMDPVDTATYYCAKHYYYGGSYAMDYWGQGTTVTVSSGGGGSDIVMTQSPLSLPVTPGEPASISCRSSQSLVHSNGNTFLHWYLQKPGQSPQLLIYKVSNRFSGVPDRFSGSGSGTDFTLKISRVEAEDVGVYYCMQSTHVLTFGGGTKLEIKRAGGGGSGGGGSGGGGSGGGGSQVQLVQSGAEVKKPGASVKVSCKASGYTFTDYLMHWVRQAPGQGLEWMGWINTETGEPTYADDFKGRVTMTRDTSTSTVYMELSSLRSEDTAVYYCAPSLYYGYSWFTYWGQGTLVTVSGGGGSEIVLTQSPATLSLSPGERATLSCRASQDISKYLNWYQQKPGQAPRLLIYHTSRLHSGIPDRFSGSGSGTDFTLTISRLEPEDIAVYYCQQGNTLPYTFGQGTKLEITTTPAPRPPTPAPTIASQPLSLRPEACRPAAGGAVHTRGLDFACDIYIWAPLAGTCGVLLLSLVITLYCKRGRKKLLYIFKQPFMRPVQTTQEEDGCSCRFPEEEEGGCELRVKFSRSADAPAYKQGQNQLYNELNLGRREEYDVLDKRRGRDPEMGGKPRRKNPQEGLYNELQKDKMAEAYSEIGMKGERRRGKGHDGLYQGLSTATKDTYDALHMQALPPR
notes: Tandem (looped) bispecific chimeric antigen receptor on human T cells; built here from its parts without the signal peptide; also called TanCAR 06 CAR-T

For one assay, the target named is T1, human BCMA (antigen). Kind of assay: flow cytometry of lentivirus-transduced T cells labelled with antigen, 48 h after transduction; percent positive cells. An excerpt: (§1) The nucleic acid sequence encoding the CAR was expressed under the drive of a promoter, therefore the lentivirus-transfected T cells could be labeled with an antigen or anti-CD19 antibody and measured by flow cytometry, to reflect the expression level of the CAR on the surface of the T cells.
Background: A flow cytometer gives signals particle by particle.
In the case of B1, the “Positive rate of binding to BCMA” value worked out at 14.2%.
Still for that read-out and setting: to B2 belongs 39.8%.
In the case of B3, the “Positive rate of binding to BCMA” value was determined as 28.5%.
Turning to B4, the “Positive rate of binding to BCMA” value came to 13.3%.

Another assay addresses T2, CD19 expressed on Nalm6 cells. Nature of the assay: cell-based or functional assay.
With B1, the “lysis rate of Nalm6-luc cells by CAR-T cells, ratio 0.25:1” value came out at 25.8%; the “lysis rate of Nalm6-luc cells by CAR-T cells, ratio 0.5:1” value came out at 42.4%; the “lysis rate of Nalm6-luc cells by CAR-T cells, ratio 1:1” value was determined as 67.7%; the “lysis rate of Nalm6-luc cells by CAR-T cells, ratio 2:1” value was determined as 91.2%.
As to B2, the “lysis rate of Nalm6-luc cells by CAR-T cells, ratio 0.25:1” value came out at 59.6%; the “lysis rate of Nalm6-luc cells by CAR-T cells, ratio 0.5:1” value came to 77.4%; the “lysis rate of Nalm6-luc cells by CAR-T cells, ratio 1:1” value was 91.5%.
The corresponding values for B3 are 65.9%, 83.8% and 92.2%.
B4: the “lysis rate of Nalm6-luc cells by CAR-T cells, ratio 0.25:1” value was 68.3%; the “lysis rate of Nalm6-luc cells by CAR-T cells, ratio 0.5:1” value was determined as 62.9%; the “lysis rate of Nalm6-luc cells by CAR-T cells, ratio 1:1” value was determined as 88.9%; the “lysis rate of Nalm6-luc cells by CAR-T cells, ratio 2:1” value was 95.5%.

Another assay deals with T3, human CD19 (antigen). Nature of the assay: flow cytometry of lentivirus-transduced T cells labelled with antigen or anti-CD19 antibody, 48 h after transduction; percent positive cells.
Description: as §1
In the case of B1, the “Positive rate of binding to CD19” value came out at 11.8%.
Same read-out and setting: then B2, with 34.8%.
Same read-out and setting: to B3 belongs 24.4%.
Consider B4, for which the “Positive rate of binding to CD19” value amounted to 16.4%.

A further assay deals with T4, BCMA expressed on target cells …. Kind of assay: cell-based or functional assay.
As for B1, the “lysis rate of CHO-K1-BCMA-luc cells by CAR-T cells, ratio 0.25:1” value was found to be 26.6%; the “lysis rate of CHO-K1-BCMA-luc cells by CAR-T cells, ratio 0.5:1” value came out at 39.2%; the “lysis rate of CHO-K1-BCMA-luc cells by CAR-T cells, ratio 1:1” value worked out at 58.2%; the “lysis rate of CHO-K1-BCMA-luc cells by CAR-T cells, ratio 2:1” value came out at 79.8%.
As to B2, the “lysis rate of CHO-K1-BCMA-luc cells by CAR-T cells, ratio 0.25:1” value turned out to be 17.1%; the “lysis rate of CHO-K1-BCMA-luc cells by CAR-T cells, ratio 0.5:1” value was determined as 36%; the “lysis rate of CHO-K1-BCMA-luc cells by CAR-T cells, ratio 1:1” value is 57.9%.
As for B3, the “lysis rate of CHO-K1-BCMA-luc cells by CAR-T cells, ratio 0.25:1” value stood at 12.3%; the “lysis rate of CHO-K1-BCMA-luc cells by CAR-T cells, ratio 0.5:1” value came out at 38.4%; the “lysis rate of CHO-K1-BCMA-luc cells by CAR-T cells, ratio 1:1” value came to 65.9%.
Turning to B4, the “lysis rate of CHO-K1-BCMA-luc cells by CAR-T cells, ratio 0.25:1” value was determined as 31.9%; the “lysis rate of CHO-K1-BCMA-luc cells by CAR-T cells, ratio 0.5:1” value worked out at 48.3%; the “lysis rate of CHO-K1-BCMA-luc cells by CAR-T cells, ratio 1:1” value was 78.4%; the “lysis rate of CHO-K1-BCMA-luc cells by CAR-T cells, ratio 2:1” value turned out to be 92.9%.
